Source: US11413334B2, “Lysin polypeptides active against Gram-negative bacteria” (CONTRAFECT CORPORATION, priority 2015, dated 2022)
“Also recorded” adds a separate entry of the source.

B1: GN2: 147 amino acid lysin polypeptide, lysozyme class, from marine metagenome (protein)
chain: MKISLEGLSLIKKFEGCKLEAYKCSAGVWTIGYGHTAGVKEGDVCTQEEAEKLLRGDIFKFEEYVQDSVKVDLDQSQFDALVAWTFNLGPGNLRSSTMLKKLNNGEYESVPFEMRRWNKAGGKTLDGLIRRRQAESLLFESKEWHQV
modifications: hypothetical protein GOS_817346 [marine metagenome] (GenBank EDG23390.1)
B2: GN4: 144 amino acid lysin polypeptide, putative endolysin of Pseudomonas phage PAJU2 (protein)
chain: MRTSQRGIDLIKSFEGLRLSAYQDSVGVWTIGYGTTRGVTRYMTITVEQAERMLSNDIQRFEPELDRLAKVPLNQNQWDALMSFVYNLGAANLASSTLLKLLNKGDYQGAADQFPRWVNAGGKRLDGLVKRRAAERALFLEPLS
modifications: Pseudomonas phage PAJU2
B3: GN14: 189 amino acid lysin polypeptide, putative endolysin of Pseudomonas phage Lu11 (protein)
chain: MNNELPWVAEARKYIGLREDTSKTSHNPKLLAMLDRMGEFSNESRAWWHDDETPWCGLFVGYCLGVAGRYVVREWYRARAWEAPQLTKLDRPAYGALVTFTRSGGGHVGFIVGKDARGNLMVLGGNQSNAVSIAPFAVSRVTGYFWPSFWRNKTAVKSVPFEERYSLPLLKSNGELSTNEA
modifications: Pseudomonas phage Lu11
B4: GN37: 126 amino acid lysin polypeptide, peptidase M15 from Micavibrio aeruginosavorus (protein, listed as Micavibrio aeruginosavorus)
chain: MTYTLSKRSLDNLKGVHPDLVAVVHRAIQLTPVDFAVIEGLRSVSRQKELVAAGASKTMNSRHLTGHAVDLAAYVNGIRWDWPLYDAIAVAVKAAAKELGVAIVWGGDWTTFKDGPHFELDRSKYR
B5: GN43: 439 amino acid lysin polypeptide, peptidase M23 of Pseudomonas (protein, listed as Pseudomonas sp.)
chain: MKRTTLNLELESNTDRLLQEKDDLLPQSVTNSSDEGTPFAQVEGASDDNTAEQDSDKPGASVADADTKPVDPEWKTITVASGDTLSTVFTKAGLSTSAMHDMLTSSKDAKRFTHLKVGQEVKLKLDPKGELQALRVKQSELETIGLDKTDKGYSFKREKAQIDLHTAYAHGRITSSLFVAGRNAGLPYNLVTSLSNIFGYDIDFALDLREGDEFDVIYEQHKVNGKQVATGNILAARFVNRGKTYTAVRYTNKQGNTSYYRADGSSMRKAFIRTPVDFARISSRFSLGRRHPILNKIRAHKGVDYAAPIGTPIKATGDGKILEAGRKGGYGNAVVIQHGQRYRTIYGHMSRFAKGIRAGTSVKQGQIIGYVGMTGLATGPHLHYEFQINGRHVDPLSAKLPMADPLGGADRKRFMAQTQPMIARMDQEKKTLLALNKQR

Legend:
[1] = tested on: PAO1 cells; experiment: Killing assay of GN4-derived peptides in Tris-HCl buffer; conditions: FIG. 6; compared with parent GN4 fragment
[2] = tested on: P. aeruginosa strain PAO1; experiment: Viability (CFU) assay of GN lysins in Tris-HCl buffer; conditions: for antibacterial activity compared with HuLYS or novobiocin / antibacterial activity compared with EDTA and PMB: lysin 25 mcg/ml, 1 hour, 37° C., 20 mM Tris-HCl pH 7.2, FIG. 4; for antibacterial activity compared with HuLYS or novobiocin: HuLYZ 25 mcg/ml, novobiocin 5 mcg/ml; for antibacterial activity compared with EDTA and PMB: EDTA 1 mM, PMB 25 mcg/ml
[3] = tested on: P. aeruginosa strain PAO1; format: cell-based, Pseudomonas aeruginosa; conditions: E. coli clones of five Micavibrio aeruginosavorus hydrolases screened

Molecule	antibacterial activity compared with HuLYS or novobiocin [2]	antibacterial activity compared with EDTA and PMB [2]	other results
FGN4-2: FGN4-1 with the 11 C-terminal residues removed, 31 amino acids (NKGDYQGAADQFPRWVNAGGKRLDGLVKRRA; Pseudomonas phage PAJU2)			effect of the sequence modification on activity of the parent fragment [1]: did reduce activity
FGN4-4: FGN4-1 with a single C-terminal cysteine added (NKGDYQGAADQFPRWVNAGGKRLDGLVKRRAAERALFLEPLSC; artificially-created modified fragment of GN4 (SEQ ID NO 3))			effect of the sequence modification on activity of the parent fragment [1]: enhanced the activity of the FGN4-1
B1	greater antibacterial activity		
B2	greater antibacterial activity	equivalent antibacterial activity; also recorded: stronger or equivalent antibacterial activity	
B3	greater antibacterial activity	equivalent antibacterial activity; also recorded: stronger or equivalent antibacterial activity	
B4	greater antibacterial activity	equivalent antibacterial activity; also recorded: stronger or equivalent antibacterial activity	clearing zone on agar overlay plates [3]: yielded a clearing zone (halo); decrease in bacterial viability ([2]; after only 1 hour of treatment): > 3 log
B5	greater antibacterial activity		
